Experimental data: publication PMC8746653, “Biochemical and Structural Analysis of a Glucose-Tolerant β-Glucosidase from the Hemicellulose-Degrading Thermoanaerobacterium saccharolyticum” (Molecules, 2022)

Key:
[1] = molecular target: T1, TsaBgl (Thermoanaerobacterium saccharolyticum, UniProt I3VXG7); assay: X-ray crystal structure, […] Å; assay type: binding; conditions: Tris from buffer bound at active site, contacts Glu163 and Glu351; crystallised in 0.1 M Tris-HCl pH 7.0
T1 construct: gene Tsac_2208

[2] = molecular target: T1, TsaBgl; assay: pNPG hydrolysis, pNP release at […] nm, inhibitor titration; assay type: biochemical; conditions: read-out: concentration that reduced the enzyme activity by half
[3] = substrate: O=[N+]([O-])c1ccc(O[C@@H]2O[C@H](CO)[C@@H](O)[C@H](O)[C@H]2O)cc1; assay: purified protein; conditions: 100 mM sodium phosphate pH 6.0, 55 °C, 0-10 mM pNPG

IC50 [2] [mM]	Molecule	X-ray crystal structure, 1.70 Å [1]	Km [3] [µM]	kcat [3] [s⁻¹]	kcat/Km [3] [M⁻¹ s⁻¹]
~10	NC(CO)(CO)CO [Tris]	one Tris molecule was bound to the active site			
	TsaBgl (Thermoanaerobacterium saccharolyticum JW/SL-YS485) (protein) MLDFSKDFLFGVATASYQVEGAYNEDGRTMSIWDTFSRQDGKVYKSHNGDVACDHYHLYKDDVKMMKDLGIEAYRFSIAWPRIFPAKGQYNPKGMDFYKRLTDELLKNDIKPFATIYHWDLPQWADDLGGWLNREIVEWYGEYAEKLFSELGGYIKNWITLNEPWCSSFLSYFIGEHAPGHKDLGEALLVSHNLLLSHGKAVEIFRGLNLDDSKIGITLNLNEVFPASDSDDDKVAAQIADGFQNRWFLDPLFKGKYPQDMVEYFGKYAKVDFINDEDLKLISQKLDFLGVNYYTRAVVQKGNDGLLDAVQIDPGNERTEMGWEIYPESLYNILMRLKREYTYDMPLYITENGAAFNDVVEDDGRVHDEKRVEFLKQHFKEAKRFLNDGGNLKGYFVWSLMDNFEWAHGYSKRFGIVYVDYETEKRILKDSALWYKDLISTRTI		360 ± 20	18.6	51000
